This is an account of results in the supplement of paper PMC12042874.

± gives the uncertainty stated by the source.

The data set is described as follows: amyloid nucleation score (Sup35N fusion, yeast selection) (log enrichment); library NNK3; higher = more nucleation; inactive = no reads after selection. Summed up: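 DiMSum was used to calculate nucleation scores as log enrichment of output over input reads, centred on the mode score of non-aggregating sequences. Sequences with fewer than 100 input reads were not scored. Input and output came from Illumina sequencing of plasmid inserts in psi-negative yeast expressing peptides of 20 random codons fused to Sup35N, induced 24 hours with 100 μM copper sulfate and then grown 7 days at 30°C on medium lacking adenine and uracil.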

Turning to CWFKLMLASMIKENTLSTYG, the amyloid nucleation score result was “inactive”.
Regarding EMCSA, the amyloid nucleation score result is “inactive”.
For EYENLYLRVQFSYMLLFLVM the value was -1.33 ± 1.8; for FGCRSNDNQ, “inactive”; for IAEDIRARPSVWDLMRSSAI, “inactive”.
As to TCAIPHLKCSFLLYFGQYGC, the amyloid nucleation score entry was “inactive”.
With RISAFWLYTACQFGSDLDTC the entry was “inactive”; with YYLRKVKRKENTSMLHAAFS, “inactive”; with RLSRSRKRYFFGFR, “inactive”.
Regarding LNPVKKLLGRLSGSREG, the amyloid nucleation score entry is “inactive”.
Take SSNLFVHHTSFTWASSTPHR: the amyloid nucleation score entry is “inactive”.
For CGVSWTVSIITDTFICN the value was 2.76 ± 0.06; for TCVWRHAWQSGAHRVVRLAW, “inactive”.
For the substance SGCGLMQNGMSCLIEFTVAK, the amyloid nucleation score result is “inactive”.
Consider WNHLDERANELCCN, for which the amyloid nucleation score result is “inactive”.
With GVVSSSPMCVNSDREVVEKT the entry was “inactive”; with GNWSYVENYV, “inactive”.
With ISLGVMCYYVPIPGCECTNI the entry was “inactive”; with NSDVYVSFLSVCVFAVRCLL, “inactive”.
On to NFINYLR, for which the amyloid nucleation score result is “inactive”.
The substance CMFVVFQLVTGHFTLLQYHG came in with an amyloid nucleation score of 1.82 ± 0.077.
With TFYVLGLDYTWLSATSGDGS, the amyloid nucleation score entry is “inactive”.
Consider LTVRSHHQAGDMCRRRAISP, for which the amyloid nucleation score entry was “inactive”.
For NCFVSICLFFASTFWLGLHN the value was “inactive”.
For HNCPFFSTDMKCSKNIHIFG the value was 1.78 ± 0.077; for RSVVVIYKRCGLYLKS, “inactive”.
With REAASQIHSEDKMGGWYHRL the entry was “inactive”.
Take PLWAYKYVPGFYRVFKVCLM: the amyloid nucleation score result is “inactive”.
For the substance MYTLCQMLNVRTRDMTCVTR, the amyloid nucleation score result was “inactive”.
For the substance CLYNGMWSCVEWNSKGSMHL, the amyloid nucleation score came to 1.26 ± 0.069.
For the substance LLVSACA, the amyloid nucleation score result is “inactive”.
On to FRFFFRKSQFYNRSLDNLVR, for which the amyloid nucleation score result is “inactive”.
As for FAEYISQ, the amyloid nucleation score stood at 0.293 ± 0.23.
With TNPLYYRS, the amyloid nucleation score entry is “inactive”.
As for VSKESILGGRCVM, the amyloid nucleation score result was “inactive”.
For the substance VDTKFSISYTGKTC, the amyloid nucleation score result is “inactive”.
On to FVQDFSTFTAGWCL, for which the amyloid nucleation score entry is “inactive”.
As for GPTLSGLNIAHWSNIYQDLG, the amyloid nucleation score result is “inactive”.
In the case of GHTRDFKGSFDFPLNFY, the amyloid nucleation score entry was “inactive”.
With GSGRNLSVLVYRLWVDGPTG the entry was “inactive”; with MTYVGGSVQYGRSLRHRIDR, “inactive”; with SEKPIFSHPNLIYENGIGWI, “inactive”.
Take TRNYFNPVSRRGVTVSRGLY: the amyloid nucleation score result was “inactive”.
In the case of LLDDVIRDAMPGSAGRSISG, the amyloid nucleation score result was “inactive”.
Regarding NAENFYV, the amyloid nucleation score result was “inactive”.
In the case of HFSMHITMLEFLTFNSARRV, the amyloid nucleation score is 2.3 ± 0.075.
As for YYRSCWLSLCWCYHYCYGVD, the amyloid nucleation score was determined as 0.346 ± 0.61.
Take VKFIYRLEQNEDSAQNSRMG: the amyloid nucleation score result is “inactive”.
Take FVLVWFLRLFDL: the amyloid nucleation score result was “inactive”.
For the substance RMVRIALTL, the amyloid nucleation score entry was “inactive”.
As to FNVTWKRLRIGRVGMKQKLS, the amyloid nucleation score was 0.336 ± 0.77.
On to KTIFSDVFYLRALWCSLNRG, for which the amyloid nucleation score entry is “inactive”.
With IRNERRQGSCGIIISRNCYV the entry was “inactive”; with TMCHGDDLRNHCYSETNSFR, “inactive”; with NFLFISYYVPGQCTV, “inactive”.
For SPFLCLLLDNEGKVLKVSYK the value was “inactive”.
As for TWSWVVAASVKLISFKL, the amyloid nucleation score entry is “inactive”.
On to IALGWFVIRFDEVVKLFKMF, for which the amyloid nucleation score result is “inactive”.
With RELYFSYDSLDYLGMRVWML the entry was “inactive”; with LSGLRNAVERVVAGFIHGRV, “inactive”; with ENLLNMFWMFPLWYLGFNLG, “inactive”.
As for VVSVLLDTI, the amyloid nucleation score entry is “inactive”.
Take GKSIYCWFWVKMQEAERLMS: the amyloid nucleation score entry was “inactive”.
Turning to VDVSRTFALCHRDLPMMP, the amyloid nucleation score entry was “inactive”.
Turning to DMLAYADMLHNFFNSSVHFW, the amyloid nucleation score entry was “inactive”.
For THESATSYLISGFGIGFIWC the value was 1.49 ± 0.089; for ECHRGDHINDYVRADNRFSL, “inactive”; for MAVLHSLFVKVQLMTSNFS, “inactive”.
With SYDFIMVLPHEDRIDIVQQF the entry was “inactive”; with SVHWEVRFYMDRYVLAYAVT, “inactive”; with TIACS, “inactive”.
Consider LGAVCVQMKKIDLSKTLETR, for which the amyloid nucleation score result is “inactive”.
For NNFMYPELAPSARRCAWYCG the value was “inactive”.
In turn, VHYSWSTFFD came in with an amyloid nucleation score of 0.593 ± 0.27.
As for FAAAFDRGQGKS, the amyloid nucleation score entry was “inactive”.
With FYSWDIHGCIVHSIYV the entry was “inactive”; with IMYTRAYLFYTRDHCLFIRV, “inactive”.
With FRYQDNDLLAHAA the figure was -0.474 ± 1; with WMDRLFVSVTAVWRQPDVGI, 1.42 ± 0.11; with MSSQVMALIRFQFHSHDSHG, 1.36 ± 0.16.
Take SYGTSGCRRLVLWTYDSKFI: the amyloid nucleation score result is “inactive”.
For the substance IEDEFEAMSHCLECRNFRKL, the amyloid nucleation score entry was “inactive”.
DFSFSIRVGSSALGVSKNTE yielded an amyloid nucleation score of 1.31 ± 0.093.
As for SVEMIPDSGLSVRMGFEGLV, the amyloid nucleation score entry is “inactive”.
Take WNLLWLLFFLCLCHCGIMWK: the amyloid nucleation score result was “inactive”.
Consider EAYEAQD, for which the amyloid nucleation score entry was “inactive”.
With SRVSPMFKIRIWNWIPAWAT, the amyloid nucleation score entry is “inactive”.
As for SEIVSKVITLQGNICFFGMG, the amyloid nucleation score entry was “inactive”.
With DNRYVY the entry was “inactive”.
With NAVSDTGRKRECFRADRFLS the entry was “inactive”; with RKTSV, -0.071 ± 0.28; with FLGSLDFVSIKCQITHVRTS, “inactive”.
Regarding AMVRNVYSCLRNRTCFLSSL, the amyloid nucleation score entry is “inactive”.
With LRGILSIVLVCGENYIKHCG the entry was “inactive”.
Regarding SFFEYLPTQPTR, the amyloid nucleation score result was “inactive”.
In the case of YRDFSEGSFPLIRVLMGMVG, the amyloid nucleation score entry is “inactive”.
Regarding FDRAFYNHWFSCGFPEGWHT, the amyloid nucleation score stood at 0.501 ± 0.17.
With LWINCSWMFNWM, the amyloid nucleation score turned out to be 2.43 ± 0.07.
For the substance FCPPADGRVTGTCDLFLTNS, the amyloid nucleation score entry is “inactive”.
Substance FLLKEWLK had an amyloid nucleation score of -0.626 ± 0.9.
Take GNFCDCEDFHKGSAGLRWSG: the amyloid nucleation score entry is “inactive”.
With EVCFIRLLLLYCR, the amyloid nucleation score result is “inactive”.
On to IYTNWYEFRV, for which the amyloid nucleation score result was “inactive”.
ALWNTFFLCENTFRMVGFVC: the amyloid nucleation score result was “inactive”.
Turning to RKLFFEFFFCDSVH, the amyloid nucleation score result is “inactive”.
For MFVGP the value was “inactive”; for LASPVNETDTLHRALQMLSK, “inactive”; for WSISSECGERVFRVRTCH, -0.548 ± 1.
The substance FVWMLRWMGRDD came in with an amyloid nucleation score of 0.816 ± 0.24.
Regarding LSRGDLLEYR, the amyloid nucleation score result is “inactive”.
As to PYQDIMNSQESGGDE, the amyloid nucleation score entry is “inactive”.
For CTFDSSSNYADSAKLIG the value was “inactive”.
On to EKECRTWHHVDGSLVESCYY, for which the amyloid nucleation score entry is “inactive”.
Regarding ELRQMTRVSVLASYTWSTTL, the amyloid nucleation score is -0.014 ± 0.46.
SSCPYIFYQLST: the amyloid nucleation score result was “inactive”.
With SGSKKCAFRHVRIHFRLTAG, the amyloid nucleation score entry was “inactive”.
Take RSRET: the amyloid nucleation score entry was “inactive”.
Consider NLPTLRVVDILCLCFYRIPS, for which the amyloid nucleation score entry was “inactive”.
VYSGESNQIYIMNWPVTSKQ gave an amyloid nucleation score of 0.062 ± 0.59.
With SESSNTELLSVLYIYAVWYL, the amyloid nucleation score result is “inactive”.
As to YTSGLVNFVVMDPGL, the amyloid nucleation score entry is “inactive”.
For SLDIKPSMRCGRRCVRGRST the value was “inactive”; for ICQQCWTVT, “inactive”; for ISLFFRICY, 0.397 ± 0.27.
For the substance LNMIHSVA, the amyloid nucleation score entry is “inactive”.
YCVQYVNDRQL returned an amyloid nucleation score of 1.85 ± 0.082.
As for LWMCLLMRRR, the amyloid nucleation score result is “inactive”.
Take YRQRWSRLCAGQSLYNCGKC: the amyloid nucleation score result was “inactive”.
Consider RSEWQMTRNYRVWGCYI, for which the amyloid nucleation score entry is “inactive”.
For FCMMKRSFCPDLNKLATDLV the value was “inactive”; for AVVPAFDLLWRNRLITSMTS, “inactive”.
